Experimental data taken from patent publication US20110130444.

Tests used:
Assay in all cases: cell_activity
piggyBac transposase = settings: HEK293 transposition; 9.8 CHO, 14.5 HeLa, 5.7 H1299; excision PCR positive
Tol2 transposase = settings: HEK293 transposition; 3.3 CHO, 5.4 HeLa, 4.1 H1299
[1] = tested on: Sleeping Beauty SB11 transposase; settings: HEK293 transposition; 2.9 CHO, 2.7 HeLa, 1.0 (inactive) H1299; excision PCR positive

With “TGATTATCTTTCTAGGG (double strand) [piggyBac terminal repeat donor (printed repeat end)]” the activity (fold over control) (piggyBac transposase) was 115.

Substance Tol2 terminal repeat donor plasmid has an activity (fold over control) (Tol2 transposase) of 93.9.

With “Sleeping Beauty terminal repeat donor plasmid” the activity (fold over control) [1] was 8.1.
